Changes are numbered by the printed parent chain. Where “and” joins values, the source holds several entries; their conditions need not be identical. Equal values may be shown once. Ends that are not written are not given here.
Key:
hnRNP L RRM2 = target: T1, hnRNP L RRM2 (Homo sapiens, UniProt P14866); assay: ITC of SETD2 peptides with hnRNP L RRM2; format: binding; conditions: ITC 20 °C, N.D. = No detectable interaction under the experiment conditions
T1 construct: made in house; host or cells: Escherichia coli BL21 (DE3)
T1 sequence (P14866 189-286): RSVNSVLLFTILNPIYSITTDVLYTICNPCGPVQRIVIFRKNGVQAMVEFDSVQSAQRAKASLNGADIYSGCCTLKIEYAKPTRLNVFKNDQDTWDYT
Protocol: (§1) The hnRNP L_RRM2 fragment (residues189-286) was amplified from the human brain cDNA library and cloned into a modified pET28a (Novagen) vector without a thrombin protease cleavage site (termed p28a). All the mutants were generated using a MutantBEST kit (Takara) and verified via DNA sequencing. All the proteins were expressed in Escherichia coli BL21 (DE3) cells. The cells were cultured at 37 °C in LB medium, until the OD600 reached about 0.8. Then the proteins were induced with 0.2 mM isopropyl β-D-1-thiogalactopyranoside (IPTG). After induction at 16 °C for 24 h, the cells were harvested and lysed by sonication in buffer A (20 mM Tris-HCl, pH 7.8, 1 M NaCl). Proteins were first purified by Ni-NTA agarose beads and further purified by size-exclusion chromatography on a Hiload 16/60 Superdex 75 column (GE Healthcare) in buffer A. Purified proteins were dialyzed with Buffer B (20 mM Tris-HCl pH 7.8, 150 mM NaCl) and concentrated for subsequent analysis.
(§2) Isothermal titration calorimetry (ITC) assays were performed at 20 °C by using a Microcal PEAQ-ITC instrument (Malvern). We conducted the ITC experiments using SETD2 peptides for titration into hnRNP L and hnRNP LL proteins. […] The integrated heat data were analyzed using a one-site binding model by MicroCal PEAQ 1.0.0.1259-ITC Analysis Software provided by the manufacturer.

PTB RRM2 (PTB1) = target: T2, PTB RRM2 (PTB1) (Homo sapiens, UniProt P26599); assay: ITC with PTB RRM2; format: binding; conditions: ITC 20 °C; N.D. = No detectable interaction under the experiment conditions
T2 construct: made in house; host or cells: Escherichia coli BL21 (DE3)

hnRNP L Y257A = target: T3, hnRNP L Y257A (Homo sapiens, UniProt P14866, Y257A); assay: ITC with hnRNP L RRM2 Y257A mutant; format: binding; conditions: ITC 20 °C; N.D. = No detectable interaction under the experiment conditions
T3 construct: made in house; host or cells: Escherichia coli BL21 (DE3)
T3 sequence (P14866 189-286 Y257A): T1 sequence (P14866 189-286) with Y69A
Protocol: as §1, §2

hnRNP L^L263A RRM2 [1] = target: T4, hnRNP L^L263A RRM2 (human, UniProt P14866 189-286, L263A); assay: ITC; SETD2 peptide (about 600 µM, syringe) titrated into the protein (about 50 µM, sample pool); 20 °C; MicroCal PEAQ-ITC; one-site binding model; three independent titrations; conditions: both partners purified
T4 construct: heterogeneous nuclear ribonucleoprotein L, human, RRM2 fragment residues 189-286 as Dm1, with L263A; source: E. coli BL21 (DE3), purified (Ni-NTA, size-exclusion chromatography)
T4 sequence (looked up): T1 sequence (P14866 189-286) with L75A

hnRNP L^V210A RRM2 = target: T5, hnRNP L^V210A RRM2 (human, UniProt P14866 189-286, V210A); assay: as above; conditions: both partners purified
T5 construct: heterogeneous nuclear ribonucleoprotein L, human, RRM2 fragment residues 189-286 as Dm1, with V210A; source: E. coli BL21 (DE3), purified (Ni-NTA, size-exclusion chromatography)
T5 sequence (looked up): T1 sequence (P14866 189-286) with V22A

hnRNP LL^V188I RRM2 = target: T6, hnRNP LL^V188I RRM2 (human, UniProt Q8WVV9 166-268, V188I); assay: as above; conditions: both partners purified
T6 construct: heterogeneous nuclear ribonucleoprotein L-like, human, RRM2 domain as Dm4, with V188I; source: E. coli BL21 (DE3), purified (Ni-NTA, size-exclusion chromatography)
T6 sequence: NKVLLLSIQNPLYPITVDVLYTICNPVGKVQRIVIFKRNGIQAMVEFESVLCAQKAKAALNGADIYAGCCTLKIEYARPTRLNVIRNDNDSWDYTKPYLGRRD

hnRNP LL RRM2 [2] = target: T7, hnRNP LL RRM2 (human, UniProt Q8WVV9 166-268); assay: as above; conditions: both partners purified
T7 construct: heterogeneous nuclear ribonucleoprotein L-like, human, RRM2 domain; also called hnRNP LL^WT; source: E. coli BL21 (DE3), purified (Ni-NTA, size-exclusion chromatography)
T7 sequence: T6 sequence with I23V

hnRNP L^L263A RRM2 [3] = target: T4, hnRNP L^L263A RRM2; assay: as above; conditions: both partners purified; remark: listed apart in the source
hnRNP L^I214A RRM2 = target: T8, hnRNP L^I214A RRM2 (human, UniProt P14866 189-286, I214A); assay: as above; conditions: both partners purified
T8 construct: heterogeneous nuclear ribonucleoprotein L, human, RRM2 fragment residues 189-286 as Dm1, with I214A; source: E. coli BL21 (DE3), purified (Ni-NTA, size-exclusion chromatography)
T8 sequence (looked up): T1 sequence (P14866 189-286) with I26A

hnRNP L^I256A RRM2 = target: T9, hnRNP L^I256A RRM2 (human, UniProt P14866 189-286, I256A); assay: as above; conditions: both partners purified
T9 construct: heterogeneous nuclear ribonucleoprotein L, human, RRM2 fragment residues 189-286 as Dm1, with I256A; source: E. coli BL21 (DE3), purified (Ni-NTA, size-exclusion chromatography)
T9 sequence (looked up): T1 sequence (P14866 189-286) with I68A

[4] = target: T10, hnRNP L RRM2 (residues 189-286) (human); assay: as above; conditions: both partners purified
T10 construct: heterogeneous nuclear ribonucleoprotein L, human, RRM2 fragment residues 189-286; also called hnRNP L^WT; source: E. coli BL21 (DE3), purified (Ni-NTA, size-exclusion chromatography)
T10 chain: T1 sequence (P14866 189-286)

[5] = target: T11, hnRNP L RRM2 (residues 189-286) (human, UniProt P14866 189-286); assay: ITC; SETD2 peptides (about 600 µM, syringe) titrated into hnRNP L / hnRNP LL proteins (about 50 µM, cell); 20 °C; Microcal PEAQ-ITC; one-site binding model; mean of three independent experiments; conditions: both partners purified
T11 construct: hnRNP L, human, RRM2 fragment, residues 189-286, amplified from a human brain cDNA library; Cloned into a modified pET28a vector without a thrombin cleavage site (p28a); also called hnRNP L RRM2 WT; source: E. coli BL21 (DE3), purified (Ni-NTA, size-exclusion chromatography)
T11 sequence (looked up): T1 sequence (P14866 189-286)

hnRNP LL RRM2 [6] = target: T12, hnRNP LL RRM2 (human, UniProt Q8WVV9 166-268); assay: as above; conditions: both partners purified
T12 construct: hnRNP LL, human, RRM2 domain; The methods describe only the cloning of hnRNP L RRM2; all proteins were expressed in E. coli; source: E. coli BL21 (DE3), purified (Ni-NTA, size-exclusion chromatography)
T12 sequence: T6 sequence with I23V

hnRNP L RRM2 I256A = target: T13, hnRNP L RRM2 I256A (human, UniProt P14866 189-286, I256A); assay: as above; conditions: both partners purified
T13 construct: hnRNP L, human, RRM2 fragment 189-286 with I256A; source: E. coli BL21 (DE3), purified (Ni-NTA, size-exclusion chromatography)
T13 sequence (looked up): T1 sequence (P14866 189-286) with I68A

T2 sequence (P26599 184-260 limits assumed): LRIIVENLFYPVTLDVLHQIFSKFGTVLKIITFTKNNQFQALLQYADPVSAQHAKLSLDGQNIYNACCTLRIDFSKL

SETD2^2113–2140: adjacent SETD2 fragment, residues 2113–2140, used as non-binding control in ITC (RNKLSTEERRKLFEQEVAQREAQKQQQQ)
KD / interaction detected by ITC, in words (hnRNP L RRM2): could not detect any interaction
KD / interaction detected by ITC, in words (hnRNP L RRM2; listed as SETD2^2113-2140): No Binding

YPPGYPMQAYVDPSNPNAGKVLLPTP [SETD2^2167–2192]
KD / interaction detected by ITC, in words (PTB RRM2 (PTB1)): no detectable affinity
KD / interaction detected by ITC, in words (hnRNP L Y257A): completely abolished

YPPGYPMQAYVDPSNPNAGKVLLPTP (peptide, UniProt Q9BYW2 2167-2192, looked up, source: synthetic peptide) [SETD2^2167-2192 peptide]
stoichiometry N (hnRNP L^L263A RRM2 [1]): 0.97
Kd (hnRNP L^V210A RRM2): 9.1 µM and 8.9 µM and 9.33 µM and 9.11 µM
stoichiometry N (hnRNP L^V210A RRM2): 0.93 and 0.78 and 1.13
Kd (hnRNP LL^V188I RRM2): 6.16 µM and 6.44 µM and 6.3 µM
stoichiometry N (hnRNP LL^V188I RRM2): 1.1 and 0.96 and 1.12
Kd (hnRNP LL RRM2 [2]): 8.58 µM and 8.04 µM and 8.19 µM
stoichiometry N (hnRNP LL RRM2 [2]): 0.95 and 1.04
Kd (hnRNP L^L263A RRM2 [3]): 14.4 µM and 13.6 µM and 13.2 µM and 13.7 µM
stoichiometry N (hnRNP L^L263A RRM2 [3]): 0.85 and 0.98 and 0.93
Kd (hnRNP L^I214A RRM2): 15.6 µM and 16.3 µM and 16.2 µM and 16 µM
stoichiometry N (hnRNP L^I214A RRM2): 1.01 and 1.05 and 1.18
Kd (hnRNP L^I256A RRM2): 34.8 µM and 35.8 µM and 35 µM and 35.2 µM
stoichiometry N (hnRNP L^I256A RRM2): 1.3 and 1.31 and 1.18
Kd [4]: 5.83 µM and 5.91 µM
stoichiometry N [4]: 0.93 and 0.92

B1: SETD2 2180–2192 peptide (peptide)
peptide: SNPNAGKVLLPTP
notes: also called truncated peptide; source: synthetic peptide
Kd [5]: 11.6 µM

SNPNAGKVLLPTP (source: synthetic peptide) [SETD2^2180-2192 peptide]
Kd (hnRNP LL RRM2 [2]): 20.2 µM and 19.8 µM and 20.1 µM (2×)
stoichiometry N (hnRNP LL RRM2 [2]): 0.82 and 0.83 and 0.89
Kd [4]: 11.4 µM and 11.8 µM and 11.5 µM
stoichiometry N [4]: 1.01 and 1 and 0.96

YPPGYPMQAYVDPSNPNAGKVLLPTP (peptide, UniProt Q9BYW2 2167-2192, looked up, source: synthetic peptide) [SETD2 2167–2192 peptide]
Kd [5]: 5.86 µM
stoichiometry N [5]: 0.93
Kd (hnRNP LL RRM2 [6]): 8.27 µM
fold decrease in binding against wild-type hnRNP L RRM2 (hnRNP L RRM2 I256A): 9 fold

From paper PMC8575775, “Structural basis of the interaction between SETD2 methyltransferase and hnRNP L paralogs for governing co-transcriptional splicing” (Nature Communications, 2021)
